Test results reported in the RNAGym collection of RNA variant scans (doi:10.1021/acssynbio.7b00057).

B1: Pistol ribozyme (parent)
chain: GGGUCGUUGUUCCAUAAUCGCGUGGAUAUGGCACGCAAGUUUCUACCGGGCACCGUAAAUGUCCGACUGGAGCCGUUCGGGCGGCUAUAAACAGACCUCAGGCCCGAAGCGUGGCGGCACCUGCCGCCGGUGGUAAAAAAGAUCGGAAGAGCACACGUCU

Variants of: B1
Experiment: aptazyme ON/OFF ratio, guanine; higher = stronger switching; co-transcriptional cleavage with and without guanine

Variant | aptazyme ON/OFF ratio
U7A U8G G9C U10G U11C C12A C13U | 1.29
U7A U8C G9A U10G C12G | 1.15
U7C U8G U10C C12G C13U | 1.35
U7C U8C G9A U10G U11C C12A C13G | 1.07
U7G U10G U11C C13U | 1.13
U8A G9C U10C U11A C12U C13G | 1.06
U7G U8C G9A U10G U11A C12U | 1.06
U8G G9U U10A C12G C13G | 1.12
U8G G9U U10C U11C C12A C13A | 1.05
U7A G9A U10G U11G C12A | 1.06
U7C U8C U10A U11G C13G | 1.18
U7A U8A G9A U10G U11C C12A | 1.26
U7G U8C C12A | 1.05
U7G U8G G9U U11A C12U C13U | 1.23
U7G U8G G9U U10G U11A C12U | 1.27
U8C U11C | 1.18
G9C U10A U11G C12U C13A | 1.08
U7C G9C U10A U11C C12G C13A | 1.07
U7A U8C G9A C13U | 1.18
U7C U8C U10A U11G C12G C13G | 1.22
U7G U8C G9U U10G U11A C13A | 1.08
U7C U8A G9U U10C C12A | 1.14
U7G U8G U11C C12U C13A | 1.38
U8C G9A U10G U11C C12A C13G | 1.1

Variant | aptazyme ON/OFF ratio
U7G U8A U10C U11G C12G C13U | 1.05
U7A U8G G9C U10G U11A C13G | 1.25
U8C G9C C12A C13U | 1.1
U7A U8A G9U U10A U11G C12A C13G | 1.12
U7G U8C G9C U10A C12A | 1.09
U7G U8A G9A U10C U11C C13A | 1.04
U7A U8C G9C U11G C12G | 1.12
U7C G9A U11G C12U C13U | 1.45
U7G U8G G9U C12U | 1.66
U7C U8C G9C U10C C12G C13A | 1.16
U7C U8C G9C U10A U11C C12U C13A | 1.13
U7G U8C G9U U10A U11C C12A | 2.56
G9U U10G U11A C12A C13A | 1.56
U7C G9C U10C U11G C13U | 1.19
U8G G9U U11C C12U | 1.04
U7C G9A U10G U11C C12A C13G | 1.11
U8C G9U U10C U11C C12U | 1.06
U7C U10G U11G C12A | 1.2
U7C U8C G9U U10G U11G C12U C13U | 1.08
U7G U8A U10C U11A C12G C13G | 1.22
U7G U8G U11C | 1.35
U7A U8C U10G C12G C13G | 1.11
U7A U8G G9U U10C U11A C12A C13A | 1.26
U7A G9C U11G C12G C13G | 1.14

Variant | aptazyme ON/OFF ratio
U7C U8C G9C U10G U11C C12A C13A | 1.13
U7G U8G G9U U11A C12A C13U | 1.18
U7A U8C G9C U10C U11G C13G | 1.16
U7C U8C G9A U10A U11C C12A | 1.37
U7C G9C C12U | 1.03
U7G G9A U10C U11G | 1.68
U7C U8G G9U U10C U11G C12U C13G | 1.22
U7C U8G U10A U11A C12G C13U | 1.17
G9C U11C C13A | 1.06
U7C G9U U11G C12A C13G | 1.1
U7A U8G U10A U11G C13G | 1.23
U7C U8C C12U C13U | 1.29
U7A U8A G9C U10A U11G | 1.24
U7C U8A G9A U11A C12A C13A | 1.17
U7C U8A G9U U10A U11C C12G C13G | 1.19
U7A U8A G9U U10G U11G C12G C13U | 1.22
G9C U10C U11G C13A | 1.06
U7C U8C G9C U11A C12G C13A | 1.07
U7G U8G G9C U10G C12U C13G | 1.05
U8C G9C U10C U11C C13A | 1.01
U8G G9A U10C U11G C12U | 1.29
U7A U8G U10C U11G C13G | 1.07
U8G G9A U10G C13A | 0.997
U7C U8C G9A U11G C12G C13U | 1.11

Variant | aptazyme ON/OFF ratio
U7G G9A U10C U11C C12A C13A | 1.11
U8G G9C U10C U11G C12G C13A | 1.08
U7A U8A G9C U11A C12A | 1.22
U8A G9U U10C U11A C12A C13G | 1.12
U7G U8C G9C U10G U11C C13G | 1.36
U7G U8C G9C U11C C12A | 1.9
U7G U8A G9A U11A C12G C13G | 1.09
U7C U8G G9A U10C U11C C12U C13A | 1.02
U8C G9A U10A C12G C13U | 1.31
U7A U8C G9U U10G C13U | 1.24
U8A G9C U10G U11G C12U C13A | 1.08
U7C U8C G9A U10C C12G C13A | 1.28
U8C G9C C12G C13U | 1.13
U7C U8G G9U U11G C12G C13U | 1.11
U7G G9C U10G U11G C12G | 1.07
U7C U11A C12A C13G | 1.25
U7A U8C G9C U11C C12A C13A | 1.06
U7G U8G G9U U10A U11G C12G C13G | 1.06
U7A U8C G9A U10G U11C C13U | 1.05
G9A U11G C12U C13U | 1.21
U7C U8A U10A C12G C13U | 1.26
U8G G9C U10C U11A C13U | 1.1
U8C G9A U10G C12G C13A | 1.14
U7C U8A U11A C12U C13G | 1.15

Variant | aptazyme ON/OFF ratio
U8C G9A U10G U11A C13A | 1.03
G9A U10A U11G C12G C13G | 1.2
U10C U11G C12U | 1.31
U7C U8G G9A U10C U11A C12U C13G | 1.05
U7G U11C C12G C13U | 1.14
U8C G9A U10C U11G C12G | 1.27
U8C G9C C12G | 1.19
U7C U8G G9U U11A C12A C13G | 1.19
U8A G9C U10G U11C C12A | 1.18
U7G U8G G9U U10G U11C C12U C13A | 1.06
U7C U8A G9U U10C U11C C12G C13U | 1.07
U7C U8G G9C U10C U11A C12A | 1.08
U7C U8G C13A | 1.25
U8C U10A U11C C13U | 1.03
U7G G9A C12A C13U | 1.13
U7A U8A G9A U11G C12G | 1.3
U7A U8G G9C U10C C12A C13A | 1.08
U8A U10C C12G | 1.3
U7G U8G U10A U11G C13G | 1.18
U8C G9C U10A U11A C12A C13G | 1.11
U7G U8A G9A C12G | 1.18
U7A U8G G9C U10C U11C C13U | 1.04
U7G U8C G9A U10C U11C C12G C13U | 1.09
U8G G9C U11A C12G C13G | 1.1

Variant | aptazyme ON/OFF ratio
U7A U8G U10A C12U | 1.17
U8G C12U C13G | 1.4
U8C G9C U10A U11G C12G C13G | 1.11
U7G U8C G9U U10A U11C | 1.37
U7G U8G U10G U11A C12A C13A | 1.17
U7A U8C U10C U11C | 1.04
U7A U8A U10G U11C C12U C13A | 1.42
U7A G9U U10C U11G C12U C13G | 1.12
U7A U8C G9U U10A U11G | 1.31
U8A U10C U11A C12U C13A | 1.16
U7G U8G C12U C13A | 1.31
U8G G9C U10G C12A C13A | 1.11
U7C U8C G9U U10G U11G C12U | 1.1
U7C U8A G9C U10G U11A C13G | 1.11
U8C G9U U10A C12U | 1.56
U8C G9A U10A C12U C13G | 1.24
U8A G9C U10C U11G C13U | 1.08
U7G G9C U10A U11G C12G C13A | 1.1
U7C G9U U10A U11A C12G C13U | 1.2
U7A U8A U10C U11C C12G | 1.2
U7C U8C U10G U11G C12U | 1.22
G9U U11G C12U C13A | 1.43
U7A U8G G9U U10G C12A C13G | 1.14
U7A U8A C12U | 1.59

Variant | aptazyme ON/OFF ratio
U7A U8A G9U C12U C13G | 1.16
U8A G9U C12G | 1.18
U7C U8C G9A U10A C13G | 1.1
U8C G9A U10G U11A C12A C13A | 1.14
U8G G9C U10C C12A C13G | 1.06
U7A U8G G9U C12U C13A | 1.64
U7G U8A G9U U11A C12U C13A | 1.02
U7G U8A G9U U10C U11C C12A C13U | 1.09
U8A G9A U10G U11A C13A | 1.03
U7C U8C G9U C12G | 1.29
U7A U8A G9C U11C | 1.05
U8A G9A U10C U11G C12G | 1.38
U7G U8C G9C U10A U11G C12A C13A | 1.1
U8C G9C U10G U11C C12U C13G | 1.09
U7C U10A U11G C12A | 1.29
U7G U10G U11G C12G C13U | 1.29
U8G G9U U10G U11C C12A C13A | 1.02
U7C U8G U10G C12U C13U | 1.37
U7G G9A U10C C12G C13U | 1.27
U7C U8A C12G | 1.37
U7G U8A G9C U10G U11G C12U C13G | 1.03
U7G U10C C12U C13A | 1.04
U8C G9U U11G C12U | 1.59
